According to a protein production outcome set (Wang et al. 2014):

Assay: label from the status in PepcDB records

Sequence | protein production
MLFIKPADLREIVTFPLFSDLVQCGFPSPAADYVEQRIDLNQLLIQHPSATYFVKASGDSMIDGGISDGDLLIVDSAITASHGDIVIAAVDGEFTVKKLQLRPTVQLIPMNSAYSPITISSEDTLDVFGVVIHVVKAMR | failed
MELLLSKVTDAGIDPSSVSGEEAITLWEHIGRHIASTSREKAHCLIISAEYRREIKQLCDSIEELRQALELLSLPEDVEDILSVKASLSERLVEVGDYNSALTEYIASTNIAVEYGFIDEYVLAIIGMGNLCDAYGDHNRALRYYQKIDAIDHAISSRSLRLRYKLYMLACYISLKRVAEASELLGECEELSILVSDKNLAAQTHLYRAKLHRLQEEYSEALLSISSIKYTTGSATTYWLSTMVKIETAYCLNGVGHTSLANLLLESIGKRIKKHSSPILAKRFYNAMSKVSASQGQFQQALSCEKRAFRIESDLIKHIPISELGAAQLRRLSRFELQLKLILSEIENKELKETTKQHKNTVAQLQQDVFTDPLTSLHNRRWLEVKLKDMLLHDTPFALMVIDIDHFKSINDELSHLVGDKAIKSVSQELAAYFKFKGASCVRFGGEEFLVILENSQLERAEMHAENYRERIFKYAWRDILGERGLTVSIGITLHREGENTQRTFYRADKALYRAKANGRNQVCTEL | failed
ALPPEPKEENAEPVSKLRIRTPSGEFLERRFLASNKLQIVFDFVASKGFPWDEYKLLSTFPRRDVTQLDPNKSLLEVKLFPQETLFLEAKE | failed
MFAAAVSFVALLLFTIGLYGVMTSRVGIKMLISIEIMINSAILSIIGIGSYFYSSSVQIDPYVFALFAIAIGVVESAVGLGLLVIVYRKFGKIDISLLKEIRW | failed
MFALCDVNAFYASCETVFRPDLWGKPVVVLSNNDGCVIARNAEAKALGVKMGDPWFKQKDLFRRCGVVCFSSNYELYADMSNRVMSTLEELSPRVEIYSIDEAFCDLTGVRNCRDLTDFGREIRATVLQRTHLTVGVGIAQTKTLAKLANHAAKKWQRQTGGVVDLSNLERQRKLMSALPVDDVWGIGRRISKKLDAMGIKTVLDLADTDIRFIRKHFNVVLERTVRELRGEPCLQLEEFAPTKQEIICSRSFGERITDYPSMRQAICSYAARAAEKLRSEHQYCRFISTFIKTSPFALNEPYYGNSASVKLLTPTQDSRDIINAATRSLDAIWQAGHRYQKAGVMLGDFFSQGVAQLNLFDDNAPRPGSEQLMTVMDTLNAKEGRGTLYFAGQGIQQQWQMKRAMLSPRYTTRSSDLLRVK | failed
MVNQNLTATEIGFTHEDFAALLDKYDYHFSPGDVVPGTVFSIEPRGALIDIGAKTAAYIPIQEMSINRVDAPEEVLQSNETREFFILTDENEDGQLTLSIRRIEYMRAWERVRQLQAEDATVRSGVFATNRGGALVRIEGLRGFIPGSHISTRKPKEELVGEELPLKFLEVDEERNRLVLSHRRALVERKMNRLEVGEVVIGTVRGIKPYGAFIDIGGVSGLLHISEISHEHIDTPHSVFNVNDEVKVMIIDLDAERGRISLSTKQLEPEPGDMIKNRDLVYDKAEEMAAKYREQLLAKQQGITLPAEGAEDLIEEEIPPATEDAVAEEEIVAVEEIPAAIEE | failed
VLWISSSPVLQRFDKPLLQYISKDVNVAQWEYRHHRDEGSSIDEAVDLLAEFMGQCPYPVNLAGHAAGGAIALSFARRYPKKVRSLSLLAVASQPANTWHAHYYLQRQLFTISREQILANTVRNLFGEQPSHTTKKLVAVLDRDLEQSPLLHSLFKLVHLPEGGVNMPLMICGSKNDPIVSSTTLQDWSNCLKPEDHLWECPKGHHFFHYFYPQTVGDQLLNFWQ | failed
MVKVTYDGVYVLSVKDDVPAADVLHAGDLITEIDGNAFKSSQEFIDYIHSKKVGDTVKINYKHGDKNEQADIKLTAIDKKGTPGIGITLVDDLEHHHHHH | not failed
MMKEMTVQQMTEKVLNKESLFILDVRNESDFRDWKIEGENFAYLNVPYFELVHGVDSIVDRLPKDQDIVVVCAKGGSAAFVAEQLAEAGFDNVYTLAGGMQAWSEHLHQAKVYEDDQLKIYQFIRVGKGCLSYMVLSGDEALVVDPLRFIDVYEQVAQQEGVTITHIVDSHLHADHLSGGKALAERTGAAYYLMKSEGAVFDFEPLEQHETIDFENVHLEVLAVKTPGHTPGSVSFFVNGKWLFSGDTIFVGGLGRPDLGGKVAEWAEDLYHTVYEKVAAMADDVIVLPAHYANLDEEINAEGYVGDTLGRIRARNEMMQNKAKDEFIDLVIQGAKTETPPNFEDIVAINRGLKTVDIETQRELEIGPNRCALHHTHA | failed
MNKEEQEDPQQEQISTVQENDPRNLQQLGMLLVSPGLDEDRLSEKMISKIKKSRDIEKNQKLLISRLSQKEEDHSGKPPTITTSPAEKTVPFKSLNHSLKRKRVPPALNFSDIQASSHLHGSKSAPPNITRFPQHKNSLRVRYMGRMAPTNQDYHPSVANSYMTATYPYPYTGLPPVPCYPYSSTPTQTHAYEGYYSPMYPGPLYNNGIIPADYHAKRKKLAGRSPHLEDLTSRKRTFVSKHHNGDPIISKTDEDIECSVTKNSLSEGASLNDDADDDNDKERIIIGEISLYDDVFKFEVRDDKNDYMKACETIWTEWHNLKK | failed
MSARSLYQDTAVAALRDDLALALCAAAHHGLGEGVCNHFSVALPGQAGAFLLNPRGLMWSEVRAEDIVLVDAAGNKLAGRHEVEPTAMFIHAAIHQVAGKACVLHTHMPYATALTLTEARMLDTTLSQNAMRFHGRVAADRRYNGLALDAAEGERIARAMDGADIAFLGNHGVVVCGERIDYAFDDLYYLERACCAQVLAESSGRPLVPLDAALAASVAGQARSERLQSTLFFEALRRALGLEHHHHHH | failed
SATQIPSTISILATSDIHGNVLNYDYATGKAPTNTQGLAKVSSYVNSVRASKPNVMLIDDGDTIQGTPLSYYYDKIDTTSEYPLMKIMGAMKYDTWTLGNHEFNYGLPTLNRVISDARKENINVLSANTYNSDNTNFVNPYYIKTFNINGKTVNVGILGLTTKCIPDWEDPSHYAGLHFNDLVDEAKLWVPRMKAAGANVVIVAAHSGEEGAADTIPENQIKAIATNVSGIDAIVAGHAHVTVNDTSLKNPNGKTVPVVEPNKWGTFVSQIDITLDNSGNASTINTQNVKMTDSIPEDPNIVNIIQPYQNKTLDYIST | failed
MKGTKKLAWLGLLLVLPVLAQATTVTYSALTVRELGNFLMNLPTGFYAIAPAAAKNMMDTVDVFILDVREPNEFAGERIQGAVNIPIRDLPKRVGELPKGKPIIVYCKVGHRGSMAMMFLRGQGYNVQSISGGLDGWKNAGLPVVK | failed
MKHLPTTLLLSTLAITLSAQAHNLVPAPKQTQSVLIKNATVHTVIQGVLTNTDVLIENGKISALGPQLSTNTTASTQVVDASGKHLYPGLIALDTSLGLVEIEMVRPTVDNAEVGDVNPQISAASAYNPDSELLPTIRYNGITHAQIVPSGDGLAGQSVVVDLDAWTIEDALQPNEGQFHVYWPQIKRMPEDEKEKAKAIEKNQQAIDKLITAFEDGYRYFLSQNAQDTDNWPNLRWQAMLPLYQGKATLFAHADSVSQIEQVIALTKKYQFKLVIVGGYDAWRLASSLREVNASVIYPHTLSLPKRKDEPVDLPFKIPSLLANAGIPYALGFSSDWNSRNLPYAAGYSAAYGVTPEQALKSVTLDAAKLLGIADLGAIAVGYQGSVVLSDGDILDPMSSKIDAIWIEGRQIDLNNRHQQLYQKYLKR | failed
MEKVVTLNHDLPLLHFPNSRKPFSIPSPILRISSFKRHKKRSCLASSSRLGFYTETKTVSESHGVIVDNSTIGRRLLGLAAAVSVAVSLSIFCDSPALAESLTIAFPVSRAREVIETMVEMFPLRSADAAYGKLKAMLSTLGDPFTRLITPKEYQSFRIGSDGNLQGVGLFINSEPRTGHLVSDQTHLETQISLVFGLFVHFLSMNPADRAGIHEGEELVEINGEKLDDVDSEAAAQKLRGRVGTFVTIKLKNVLFGTDSGIREVTVTAVSVRCVKLPRDYIKLSPISSAIIPHTTPDGRLAKTGYVKLTAFSQTAASDMENAVHEMENQDVQSYILDLRNNPLLAIPYQGGLVRAGLDVAQLWLDGDETLVYTIDREGVTSPINMINGHAVTHDPLVVLVNEGSASASEILAGALHDNGRAILVGNRTFGKGKIQSITELNDGSALFVTVAKYLSPSLHEIDQVGIAPDVQCTTGMIDSLTAEIVEKMNSSVPLLEADSCVMVAEHELEARRSNGTAS | failed
MAIHVGIIDQDPVRLVTPLLDHRTVSRHIIFIGDHTQTVIYQRLSDVLNKRNISTDFFEIPAGSNTSAIKSAIRELAETLKARGEEVKFNASCGLRHRLLSAYEVFRSYHWPIFVVEPNSDCLCWLYPEGNNDTQVQDRITIADYLTIFGARGEFNEHQLSPQLDQQLYQLGERWASNALELGPGLATLNYLATTCRKEQKLDVELSDKQQGYRELNLLLSDLVEAKIASYENGILTFINEEARRFANGEWLETLVHSTVKQIQDDMPTIQDRSLNVQVYRQLGEREVRNELDVATVVNNKLHIIECKTKGMRDDGDDTLYKLESLRDLLGGLQARAMLVSFRPLRHNDITRAEDLGLALIGPDELKDLKTHLTQWFKAAGGN | not failed
MKFSIIVPSYNSEKYIAELLNSLQNQSYDKKDFEVILVDDCSSDNTLNVVEAYKNKLNLIIKQLDTNSGGPGKPRNTALQLAQGEYVFFVDSDDYINKDTLKDVSKFVDQNHADVVLVKMEGVNGRGVPKSMFKETSDAVTLANSRIIYTLSPTKFYRTSLLRDHAIEFPEDLRSAEDQLFTMKAYVNAKRIAVLADKPYYYATKREGEHMSSAYVSPEDFYKVMSLITEEILNSPLENKNEVLGYFIDRHFSFSRTNNFSLKIADDKKEAWMDALGDFIQKVPTVVDELVNDSFKPLLHYARLKDMKHYQMVEESYKNGKFHSYSAQEGTLKIQFDEGEPYFVFKKLVKPDIRMSHFEFNDQGFELELEFISSIINPNHVASMIQLKLLSRNKKEFIYIPLTMNDQTRFKFKADLNDLMPYLIKEKVWDAHLEMRVDNMTIEKRIGNKRVKYPYSKETSTITQYNNQYYRFTPYFTKDFDNLSFYITSNKLNEMLAVEIKDKQTIQLRSLEFNYILSEGMTAVILPHMFTYGYLTSVTTKDTLTYHLSVGEKVKDKDLKKNFKIETPHLVLKYLEHHHHHH | not failed
MSNVSSETVNLNNTSIVHMNMSNVTKLTASNYIMWSRQVHALLHGYGLTQYLDATKAAPAREITVNDVASVNPEYEAWSRQDQLIFSALIGTLSLTVQPTVSRAATSADVWATLAGTYAKPSRGHIKQLQHQIKQWKKDTRTIDEYVQGFINRFDQLALIGKIIDHEDQVDYILGGLPEDYKPIVDQMEGRDTPPNGCLTNSCDEDGCFIQMALNSV | failed
SERNDIINFKALEKELQAALTADEKYKRENAAKLRAVEQRVASYEEFRGIVLASHLKPLERKDKMGGKRTVPWNCHTIQGRTFQDVATEISPEKAPLQPETSADFYRDWRRHLPSGPERYQALLQLGGPRLGCLFQTDVGFGLLGELLVALADHVGPADRAAVLGILCSLASTGRFTLNLSLLSRAERESCKGLFQKLQAMGNPRSVKEGLSWEEQGLEEQSGGLQEEERLLQELLELYQVD | not failed
MLTLIKRTVLAAGLIGTTLGAAAQPPRAYPLKDFFRNPERGYFRLADDGKTLGFMQPVSIDGQPPRMNIYVQALADGVPAGEPRKLTSETARDISNFFWKGDDTVLYQKDFGGDENFHVLAVNARTGQVADLTPYEGVRASIEDDLPDDPDHVLISHNRRDPQVFDVYRVNVRTGAAELVAQNPGNVVGWQTDHAGKVRAAITSDGLNTTLLYRDDEAAPFRPLITTDYRVSVSPAFFTFDDRKLYALSNRGRDKLALVVIDPATPDVEQPVFEPDEVDLDAAGYSRKRKVLTVASYQTDKPRHRFFDAETEALYARLARALPGYDFALQGWNRDEDTFIVAAYNDRTPGSRYLYDARRDSLHKLADINPAIPEADMAPVRPVSYQSRDGLTIHGYLTLPAGRAPRNLACIVNPHGGPWARDGWGYNPEVQFLANRGFCVLQMNFRGSTGYGRKFWEAGFGQWGLKMQDDITDGVQWLIDQGIADPRRIGIYGGSYGGYATLAGVAFTPDLYAAAVDYVGVSNLFTFMNTIPPYWKPLLAKMQDMVGDPVRDKARLEATSPALHVDRIKTPLFIAQGAKDPRVNKAESDQVVQALRQRGVEVEYMVKDNEGHGFHNDENKFEFYAAMEKFFTEHLKP | failed
